According to article PMC9701387, “CDH17 nanobodies facilitate rapid imaging of gastric cancer and efficient delivery of immunotoxin” (Biomaterials Research, 2022):

B1: A1 nanobody (VHH)
VHH: AVQLVESGGGLVQAGDSLRLSCAASGRTFSSNGMGWFRQAPGKGREFVAAISWNAGTTLYTDSVKGRFTISRDNAKNTVYLQMNSLKPEDTAIYYCAAREYYGGSYYPSREYEYGYWGQGTQVTVSS
notes: from a naive alpaca VHH phage library; HA tag joined to the C-terminus by a GA linker; a cysteine is attached at the end of the HA tag; The purified protein was confirmed with His tag and HA tag antibodies; also called CDH17 nanobody A1; source: E. coli (pColdII vector), purified (Ni-NTA); not shown: HA, C-terminal, kept
B2: CDH17 domain 1-3 (human), recombinant (domain or fragment)
chain: QEGKFSGPLKPMTFSIYEGQEPSQIIFQFKANPPAVTFELTGETDNIFVIEREGLLYYNRALDRETRSTHNLQVAALDANGIIVEGPVPITIKVKDINDNRPTFLQSKYEGSVRQNSRPGKPFLYVNATDLDDPATPNGQLYYQIVIQLPMINNVMYFQINNKTGAISLTREGSQELNPAKNPSYNLVISVKDMGGQSENSFSDTTSVDIIVTENIWKAPKPVEMVENSTDPHPIKITQVRWNDPGAQYSLVDKEKLPRFPFSIDQEGDIYVTQPLDREEKDAYVFYAVAKDEYGKPLSYPLEIHVKVKDINDNPPTC
notes: Cadherin-17 (CDH17, LI-cadherin), human, extracellular cadherin domains 1-3; soluble protein of about 40 kD; the supplementary methods (Additional file 1) may hold them; also called extracellular domain 1-3 of CDH17; CDH17 protein; source: E. coli BL21 (DE3), purified (Ni-NTA, Superdex gel filtration)
B3: E8 nanobody (VHH)
VHH: AVQLVESGGGLVQPGGSLRLSCTASGSILSFNSMGWHRQAPGRQRELVAGISIHKTSSNYANFVKGRFTISRDDAKNTVYLQMNSLKPEDTAVYYCAAVQRGQSRISYWGQGTQVTVSS
notes: from a naive alpaca VHH phage library; shorter CDR3 than A1; HA tag joined to the C-terminus by a GA linker; a cysteine is attached at the end of the HA tag; The purified protein was confirmed with His tag and HA tag antibodies; also called CDH17 nanobody E8; naked E8 nanobody; source: E. coli (pColdII vector), purified (Ni-NTA); not shown: HA, C-terminal, kept

Columns and labels:
[1] = target: B2; assay: SPR; format and conditions not told in the text shown; details: both partners purified
[2] = target: E8-PE38 immunotoxin (alpaca (Lama pacos) | Pseudomonas …); assay: as above; details: both partners purified

With B1 the Kd [1] was 377 nM.

With B2 the Kd [2] was 86.9 nM.

Work on B3 yielded a Kd [1] of 70.3 nM.
